# Patent US20020110883
# B1: Kip3A 353 protein (protein)
# chain: MAVEDSTLQVVVRVRPPTPRELDSQRRPVVQVVDERVLVFNPEEPDGGFPGLKWGGTHDGPKKKGKDLTFVFDRVFGEAATQQDVFQHTTHSVLDSFLQGYNCSVFAYGATGAGKTHTMLGREGDPGIMYLTTVELYRRLEARQQEKHFEVLISYQEVYNEQIHDLLEPKGPLAIREDPDKGVVVQGLSFHQPASAEQLLEILTRGNRNRTQHPTDANATSSRSHAIFQIFVKQQDRVPGLTQAVQVAKMSLIDLAGSERASSTHAKGERLREGANINRSLLALINVLNALADAKGRKTHVPYRDSKLTRLLKDSLGGNCRTVMIAAISPSSLTYEDTYNTLKYADRAKEIRLKGNSKLEGKPIPNPLLGLDSTRTGHHHHHH
# Molecular target: microtubules
protein,measurement,value
B1,"Km for microtubule stimulation (coupled PK/LDH ATPase assay, Michaelis-Menten fit)",Km for microtubule stimulation of 4.6 ug/ml
same,"Vmax of microtubule-stimulated ATPase (coupled PK/LDH ATPase assay, Michaelis-Menten fit)",Vmax 0.85 uM ADP/s
same,kcat of microtubule-stimulated ATPase (from Vmax),corresponds to a kcat value of 15s^-
